Residue numbers refer to the chain shown, from its start. Names and notes keep the numbering of the source.
B1: Fab-IDS (WT), fusion protein of wild-type hIDS and an anti-hTfR (Fab) antibody (Fab)
heavy: EVQLVQSGAEVKKPGESLKISCKGSGYSFMNYWLGWVRQMPGKGLEWMGDIYPGGDYPTYSEKFKVQVTISADKSISTAYLQLSSLKASDTAMYYCARSGNYDEVAYWGQGTLVTVSSASTKGPSVFPLAPSSKSTSGGTAALGCLVKDYFPEPVTVSWNSGALTSGVHTFPAVLQSSGLYSLSSVVTVPSSSLGTQTYICNVNHKPSNTKVDKKVEPKSCDKTHTGGGGSGGGGSGGGGSSETQANSTTDALNVLLIIVDDLRPSLGCYGDKLVRSPNIDQLASHSLLFQNAFAQQAVCAPSRVSFLTGRRPDTTRLYDFNSYWRVHAGNFSTIPQYFKENGYVTMSVGKVFHPGISSNHTDDSPYSWSFPPYHPSSEKYENTKTCRGPDGELHANLLCPVDVLDVPEGTLPDKQSTEQAIQLLEKMKTSASPFFLAVGYHKPHIPFRYPKEFQKLYPLENITLAPDPEVPDGLPPVAYNPWMDIRQREDVQALNISVPYGPIPVDFQRKIRQSYFASVSYLDTQVGRLLSALDDLQLANSTIIAFTSDHGWALGEHGEWAKYSNFDVATHVPLIFYVPGRTASLPEAGEKLFPYLDPFDSASQLMEPGRQSMDLVELVSLFPTLAGLAGLQVPPRCPVPSFHVELCREGKNLLKHFRFRDLEEDPYLPGNPRELIAYSQYPRPSDIPQWNSDKPSLKDIKIMGYSIRTIDYRYTVWVGFNPDEFLANFSDIHAGELYFVDSDPLQDHNMYNDSQGGDLFQLLMP
light: DIVMTQTPLSLSVTPGQPASISCRSSQSLVHSNGNTYLHWYLQKPGQSPQLLIYKVSNRFSGVPDRFSGSGSGTDFTLKISRVEAEDVGVYYCSQSTHVPWTFGQGTKVEIKRTVAAPSVFIFPPSDEQLKSGTASVVCLLNNFYPREAKVQWKVDNALQSGNSQESVTEQDSKDSTYSLSSTLTLSKADYEKHKVYACEVTHQGLSSPVTKSFNRGEC
modifications: N-linked sugar chains containing mannose-6-phosphate (M6P) on the asparagines at positions 221 and 255 of the hIDS portion (numbering of SEQ ID NO: 1)
notes: Humanized anti-hTfR Fab; Expressed in ExpiCHO cells
B2: Fab-IDS (m1), fusion protein of hIDS mutant muhIDS-1 (T223A, S257A) and an anti-hTfR (Fab) antibody (Fab)
heavy: B1 heavy with T464A, S498A
light: B1 light
B3: Fab-IDS (m2), fusion protein of hIDS mutant muhIDS-2 (N221Q, N255Q) and an anti-hTfR (Fab) antibody (Fab)
heavy: B1 heavy with N462Q, N496Q
light: B1 light

Tests used:
[1] = target: T1, human mannose-6-phosphate receptor (cation-independent) domain 9 recombinant protein with C-terminal … (human, UniProt P11717 1219-1364); test: BLI (Octet RED96), M6PR domain 9 (His tag) on Ni-NTA biosensor, 1:1 model
T1 construct: Loaded on the Ni-NTA biosensor; also called human M6PR; M6PR
Experimental: (§1) As the human M6PR, there was used a protein having the amino acid sequence represented by SEQ ID NO: 42, in which restriction enzyme-derived amino acids were added to both ends of the amino acid sequence corresponding to domain 9 from valine at the 1219th position to phenylalanine at the 1364th position from the N-terminus side in the amino acid sequence of a cation-independent mannose-6-phosphate receptor represented by SEQ ID NO: 41, and a histidine tag was further added to the C-terminus thereof.
(§2) In addition, human M6PR was adjusted to a concentration of […] with HBS-P+ to obtain an M6PR (His tag) solution.
(§3) The sample solution for M6PR affinity measurement was added to a 96-well plate, black (Greiner Bio-One International GmbH) at 200 μL/well. The M6PR (His tag) solution was added to predetermined wells at 200 μL/well. HBS-P+ was added to wells for baseline, dissociation, and washing at 200 μL/well. 10 mM Glycine-HCl (pH 1.7) was added to wells for regeneration at 200 μL/well. 0.5 mM NiCl₂ solution was added to wells for activation at 200 μL/well. This plate and a biosensor (Biosensor/Ni-NTA, ForteBio) were placed at predetermined positions in the Octet RED96.

[2] = target: T2, human TfR extracellular region with N-terminal histidine tag, hTfR-ECD (His tag) (human, UniProt P02786 87-760); test: BLI (Octet RED96), hTfR-ECD (His tag) on Ni-NTA biosensor, 1:1 model
T2 construct: Loaded on the Ni-NTA biosensor in the BLI assay; 760 is the known length of human TfR, not a printed number; not shown: histidine tag at the N-terminus
Experimental: In addition, hTfR was adjusted to a concentration of 25 ng/ml, using HBS-P+ (1% BSA) to obtain an hTfR-ECD (His tag) solution.
as §3, with “for hTfR” for “for M6PR”, “The hTfR-ECD” for “The M6PR”, “HBS-P+ (1% BSA)” for “HBS-P+”, “NiCl₂ (1% BSA)” for “NiCl₂”
Note that the measurement was carried out at a temperature of 25 to 30° C.

[3] = target: T1, human mannose-6-phosphate receptor …; test: BLI (Octet RED96), M6PR (His tag) on Ni-NTA biosensor
Experimental: as §1, §2, §3

T2 sequence (P02786 other isoform, or with tags, fused parts or gaps): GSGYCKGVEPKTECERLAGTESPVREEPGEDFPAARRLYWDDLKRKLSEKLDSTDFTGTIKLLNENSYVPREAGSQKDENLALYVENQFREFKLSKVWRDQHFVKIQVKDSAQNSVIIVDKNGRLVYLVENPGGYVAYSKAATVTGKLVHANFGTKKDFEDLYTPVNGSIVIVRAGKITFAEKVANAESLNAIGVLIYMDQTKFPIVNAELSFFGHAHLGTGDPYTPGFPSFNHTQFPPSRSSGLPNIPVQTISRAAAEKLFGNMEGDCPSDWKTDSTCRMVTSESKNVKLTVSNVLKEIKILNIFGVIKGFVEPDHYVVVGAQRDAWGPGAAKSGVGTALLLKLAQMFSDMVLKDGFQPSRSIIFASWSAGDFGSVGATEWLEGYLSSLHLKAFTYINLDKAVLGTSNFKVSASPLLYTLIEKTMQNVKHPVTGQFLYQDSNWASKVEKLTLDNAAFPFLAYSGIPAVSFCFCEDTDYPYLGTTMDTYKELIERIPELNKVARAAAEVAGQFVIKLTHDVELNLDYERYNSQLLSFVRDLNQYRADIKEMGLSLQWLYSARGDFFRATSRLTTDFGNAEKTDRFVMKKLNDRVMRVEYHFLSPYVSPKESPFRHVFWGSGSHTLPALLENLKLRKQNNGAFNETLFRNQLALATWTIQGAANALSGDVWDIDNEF
T1 sequence (P11717 other isoform, or with tags, fused parts or gaps limits assumed): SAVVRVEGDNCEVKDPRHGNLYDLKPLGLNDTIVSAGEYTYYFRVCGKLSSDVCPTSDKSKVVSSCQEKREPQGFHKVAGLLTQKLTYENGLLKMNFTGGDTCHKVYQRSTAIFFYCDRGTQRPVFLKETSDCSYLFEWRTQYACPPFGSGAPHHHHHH

Binder | Kd [1] [nM] | koff [1] [s⁻¹] | kon [1] [M⁻¹ s⁻¹] | Kd [2] [nM] | koff [2] [s⁻¹] | kon [2] [M⁻¹ s⁻¹] | binding result [3]
B1 | 2.32 | 0.000586 | 253000 | 0.67 | 0.000331 | 494000 | –
B2 | – | – | – | 0.678 | 0.000331 | 489000 | no binding
B3 | – | – | – | 0.661 | 0.00031 | 469000 | no binding
